Values belong to the binder of their own block, whether it stands above or below them.
Legend:
[1] = target: T1, full-length human PD-L1 on K562 cells (human, UniProt Q9NZQ7 19-290); test: FACS, PD-L1/K562 cells
T1 construct: also called PD-L1/K562; cell surface human PD-L1
Method: Cells were spun down at 1200 rpm for 5 minutes at 4° C. to remove primary antibodies. Cells were then washed once with 200 μL of full medium per well. […] Samples were spun down at 1200 rpm for 5 minutes at 4° C. and washed twice with 200 μL of 1×PBS per well. Samples were reconstituted in 200 μL of 1×PBS and were read on Attune NxT cytometer.
(§1) The production, the binding, and all of the characterization assays for selected affinity matured scFv clones were performed as described above.

[2] = target: T2, human PD-L1-Fc (human, UniProt Q9NZQ7 19-238); test: SPR, PD-L1-Fc captured, scFv analyte
T2 construct: also called recombinant PD-L1-Fc fusion protein
Method: The assay was run with Biacore T200 control software version 2.0. Anti-human Fc antibody was immobilized on flow cell 1 and 2 of CM5 sensor chip. […] The flow cells were then regenerated with antibody regeneration buffer (GE Healthcare) for 30 seconds at flow rate of 30 μl/min.
as §1

[3] = target: T2, human PD-L1-Fc; test: ELISA, coated PD-L1-Fc, anti-FLAG HRP
Method: The plate was incubated overnight at 4° C. followed by blocking with 80 μL of superblock per well for 1 hour. […] In between each step, the plate was washed 3 times with 1×PBST in a plate washer. The plate was then developed with 20 μL of TMB substrate for 5 min and stopped by adding 20 μL of 2N sulfuric acid. The plate was read at OD450 nm Biotek plate reader and then plotted in Prism 8.1 software.
as §1

[4] = target: T2, human PD-L1-Fc; test: SPR, PD-L1-Fc captured, scFv analyte; exponent sign missing in print, value set to E-03 from the same row's KD x kon
[5] = target: T3, recombinant His-tagged human IL-2Rα (human, UniProt P01589 22-213, limits assumed); test: ELISA, coated His-tagged human IL-2Rα, OD 450 nm
T3 construct: also called IL-2Rα-HIS; CD25
T3 sequence (looked up): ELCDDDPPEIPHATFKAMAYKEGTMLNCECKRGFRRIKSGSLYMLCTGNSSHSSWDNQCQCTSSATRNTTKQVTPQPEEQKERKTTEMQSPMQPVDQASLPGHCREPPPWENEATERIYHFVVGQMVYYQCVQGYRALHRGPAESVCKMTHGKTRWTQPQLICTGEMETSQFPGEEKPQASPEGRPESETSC
Method: (§2) For monovalent IL-2 Fc-fusion proteins, recombinant His-tagged human IL-2Rα and IL-2Rβ were added in 25 μL of 1×PBS to wells of 384-well plate and incubated overnight at 4° C. to coat the plates. Plates were washed three times with 0.05% Tween20/1×PBS. Plates were blocked with 100 μL of SuperBlock for 1 hr at RT and then washed 3 times with 0.05% Tween20/1×PBS. IL-2 mutants were diluted in 0.05% Tween 20/1×PBS from 1000 nM to 0 nM and added to plates for 2 hrs at room temperature. Plates were then washed 6 times with 0.05% Tween20/1×PBS. Anti-HisTag-HRP was diluted 1:5000 in 0.05% Tween20/1×PBS and added to plates for 1 hr at RT. Plates were then washed 6 times with 0.05% Tween 20/1×PBS, and TMB was added to develop blue color. Reactions were stopped with 2N […] and light absorbance at 450 nm was read on a BioTek plate reader. Absorbance versus IL-2 concentration is graphed for human IL-2Rα and IL-2Rβ.
A 384 well plate was immobilized with anti-human Fc at final concentration of 2 μg/mL in 1×PBS in total volume of 25 μL per well. The plate was incubated overnight at 4C followed by blocking with 80 μL of superblock per well for 1 hour. […] In between each step, the plate was washed 3 times with 1×PBST in a plate washer. […] The plate was read at OD450 nm Biotek plate reader and the binding correlation was plotted with Prism 8.1 software. […]

[6] = target: T4, recombinant His-tagged human IL-2Rβ (human, UniProt P14784 27-240, limits assumed); test: SPR, Protein A capture, IL-2Rβ-HIS analyte
T4 construct: also called IL-2Rβ-HIS; IL-15Rβ-HIS
T4 sequence (looked up): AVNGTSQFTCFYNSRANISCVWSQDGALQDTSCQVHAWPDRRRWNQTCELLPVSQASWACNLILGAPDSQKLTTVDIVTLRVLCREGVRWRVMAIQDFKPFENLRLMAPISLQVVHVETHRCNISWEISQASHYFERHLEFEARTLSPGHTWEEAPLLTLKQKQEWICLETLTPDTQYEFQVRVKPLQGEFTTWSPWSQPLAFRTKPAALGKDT
Method: (§3) The assay was run with Biacore T200 control software version 2.0. For each cycle, 1 μg/mL of anti-hPD-L1/IL-2 was captured for 60 seconds at flow rate of 10 μL/min on flow cell 2 in 1×HBSP buffer on Protein A sensor chip. […] The flow cells were then regenerated with Glycine pH2 for 60 seconds at flow rate of 30 μL/min. […] The specific binding response unit was derived from subtraction of binding to reference flow cell 1 from antibody captured flow cell 2.

[7] = target: T5, human PD-L1-HIS tagged recombinant protein (human, UniProt Q9NZQ7 19-238); test: SPR, Protein A capture, PD-L1-HIS analyte
T5 construct: also called hPD-L1-HIS; PD-L1 HIS tagged protein
Method: as §3

[8] = target: T4, recombinant His-tagged human IL-2Rβ; test: ELISA, coated His-tagged IL-2Rβ
Method: as §2, with “IL-2Rβ. […]” for “IL-2Rβ.”

[9] = target: biotinylated PD-L1 (Homo sapiens (Human), UniProt Q9NZQ7 19-238, biotinylated; site not stated); test: ELISA, anti-human Fc capture, biotinylated PD-L1
Method: A 384 well plate was immobilized with anti-human Fc at final concentration of 2 μg/mL in 1×PBS in total volume of 25 μL per well. The plate was incubated overnight at 4C followed by blocking with 80 μL of superblock per well for 1 hour. […] In between each step, the plate was washed 3 times with 1×PBST in a plate washer. The plate was then developed with 25 μL of TMB substrate for 5 min and stopped by adding 25 μL of 2N sulfuric acid. The plate was read at OD450 nm Biotek plate reader and the binding correlation was plotted with Prism 8.1 software. The ELISA binding assays of the antibodies to IL-2Rα and IL-2Rβ receptors were performed as described in Example 6.

[10] = target: T6, PD-L1 biotinylated (PD-1/PD-L1 TR-FRET assay kit, BPS 72038) (Homo sapiens (Human), UniProt Q9NZQ7 19-238, biotinylated; site not stated); test: HTRF competition, competitor PD-1-Eu
T6 construct: Kit reagent
Method: Briefly, 1× Immuno buffer 1 was made. […] For each well in 384-well plate, serial diluted scFvs and regents were added according to manufacturer's recommended volume. Samples were incubated at room temperature for 1.5 hours then the fluorescent intensity was read with Biotek Neo2 plate reader using manufacture's instrument setting for the assay.

[11] = target: T4, recombinant His-tagged human IL-2Rβ; test: SPR, Protein A capture, IL-2Rβ-HIS analyte, steady state affinity
Method: as §3

[12] = target: PD-L1 on PD-L1 aAPC/CHOK1 cells (Promega J1250); test: cell-based or functional assay

EC50 [1]: 0.221 nM
Kd [2]: 2.58 nM
kon [2]: 1.76e+06 M⁻¹ s⁻¹
EC50 [3]: 0.507 nM
koff [4]: 0.00454 s⁻¹
B1: 2019EP69-C05 scFv (scFv, V domains shown)
VH: QVQLVQSGAEVKKPGSSVKVSCKASGGTFSSYAISWVRQAPGQGLEWMGGIIPIFGTANYAQKFQGRVTITADESTSTAYMELSSLRSEDTAVYYCARDKGYGSGFRGDYWGQGTLVTVSS
VL: QSVLTQPPSASGTPGQRVTISCSGSYSNIGSNFVNWYQQLPGTAPKLLIHFNNQRPSGVPDRFSGSRSGTSASLAISGLQSEDEADYFCSTWDDSLKGPIFGGGTKLTVL

Kd [6]: 6.5 nM
koff [6]: 0.0107 s⁻¹
kon [6]: 1.65e+06 M⁻¹ s⁻¹
Kd [7]: 0.507 nM
koff [7]: 0.000247 s⁻¹
kon [7]: 487000 M⁻¹ s⁻¹
EC50 [8]: 0.545 nM
EC50 [9]: 0.345 nM
B2: IL-2/anti-PD-L1 scFv Fc EP413/EP326 (bispecific antibody)
chain 1: not shown
chain 2: QVQLVQSGAEVKKPGSSVKVSCKASGGTFSSYAISWVRQAPGQGLEWMGGIIPIFGTANYAQKFQGRVTITADESTSTAYMELSSLRSEDTAVYYCARDKWYGSAWRGDYWGQGTLVTVSSGGGGSGGGGSGGGGSQSVLTQPPSASGTPGQRVTISCSGSYSNIGSNFVNWYQQLPGTAPKLLIHFNNQRPSGVPDRFSGSRSGTSASLAISGLQSEDEADYFCSTWDDSLKGPIFGGGTKLTVLDKTHTCPPCPAPEAAGGPSVFLFPPKPKDTLMISRTPEVTCVVVDVSHEDPEVKFNWYVDGVEVHNAKTKPREEQYNSTYRVVSVLTVLHQDWLNGKEYKCKVSNKALGAPIEKTISKAKGQPREPQVCTLPPSRDELTKNQVSLSCAVKGFYPSDIAVEWESNGQPENNYKTTPPVLDSDGSFKLVSKLTVDKSRWQQGNVFSCSVMHEALHNHYTQKSLSLSPGK
notes: IL2 EP001 carrying K35L/R38D/F42R
binding result [5]: no binding (tested: LOG(IL-2(nM)) 2 (100 nM))

Kd [7]: 0.547 nM
EC50 [9]: 0.287 nM
IC50 [10]: 346 nM
Kd [11]: 75.8 nM
NFAT reporter EC50 [12]: 9.07 nM
B3: IL-2/anti-PD-L1 scFv Fc EP418/EP326 (bispecific antibody)
chain 1: not shown
chain 2: B2 chain 2
notes: IL2 EP340
